Variants at the floor of the assay were thinned out.
How the values were obtained:
biotinyl-Phe-oxazolone = assay: self-aminoacylation, catalytic enhancement (BFO) (fold over background); higher = more active; k-Seq, kA / k0A0; sequences stand for … in GGGAAUGGAUCCACAUCUACGAAUUC…UUCACUGCAGACUUGACGAAGCUG
Procedure, shortened: (§1)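 Mutagenized RNA pools with a 21-nt variable region (0.43 μM) were reacted with each biotinyl-aminoacyl-oxazolone at 2–1250 μM for 90 minutes at room temperature, in 50 μL HEPES/NaCl/KCl/MgCl2/CaCl2 buffer containing 5% acetonitrile at pH 6.9–7.0. RNA captured on streptavidin was quantified by triplicate qPCR and by Illumina sequencing. The fraction reacted for each sequence was fit to a pseudo-first-order model with bootstrapping, and catalytic enhancement is the median kA divided by the uncatalyzed rate, taken as the low-activity peak of a bimodal Gaussian fit.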

biotinyl-Ile-oxazolone = assay: self-aminoacylation, catalytic enhancement (BIO) (fold over background); higher = more active; k-Seq, kA / k0A0; sequences stand for … in GGGAAUGGAUCCACAUCUACGAAUUC…UUCACUGCAGACUUGACGAAGCUG
Procedure, shortened: as §1

biotinyl-Met-oxazolone = assay: self-aminoacylation, catalytic enhancement (BMO) (fold over background); higher = more active; k-Seq, kA / k0A0; sequences stand for … in GGGAAUGGAUCCACAUCUACGAAUUC…UUCACUGCAGACUUGACGAAGCUG
Procedure, shortened: as §1

biotinyl-Val-oxazolone = assay: self-aminoacylation, catalytic enhancement (BVO) (fold over background); higher = more active; k-Seq, kA / k0A0; sequences stand for … in GGGAAUGGAUCCACAUCUACGAAUUC…UUCACUGCAGACUUGACGAAGCUG
Procedure, shortened: as §1

biotinyl-Leu-oxazolone = assay: self-aminoacylation, catalytic enhancement (BLO) (fold over background); higher = more active; k-Seq, kA / k0A0; sequences stand for … in GGGAAUGGAUCCACAUCUACGAAUUC…UUCACUGCAGACUUGACGAAGCUG
Procedure, shortened: as §1

biotinyl-Trp-oxazolone = assay: self-aminoacylation, catalytic enhancement (BWO) (fold over background); higher = more active; k-Seq, kA / k0A0; sequences stand for … in GGGAAUGGAUCCACAUCUACGAAUUC…UUCACUGCAGACUUGACGAAGCUG
Procedure, shortened: as §1

Sequence | self-aminoacylation (biotinyl-Phe-oxazolone) | self-aminoacylation (biotinyl-Ile-oxazolone) | self-aminoacylation (biotinyl-Met-oxazolone) | self-aminoacylation (biotinyl-Val-oxazolone) | self-aminoacylation (biotinyl-Leu-oxazolone) | self-aminoacylation (biotinyl-Trp-oxazolone)
GUACACCUAGGUCAUCGGGUG [Fam2.2 aminoacylation ribozyme variant] | 18.5 | 2.54 | 2.32 | 2.53 | 2.69 | 4.08
GUACUUCAAACAAUCGGUGUG [Fam1A.1 aminoacylation ribozyme variant] | 10.4 | 2.12 | 2.77 | 1.97 | 3.35 | 10.2
GUACUUCAAACACUCGGUCUG [Fam1A.1 aminoacylation ribozyme variant] | 5.9 | 1.5 | 1.31 | 1.3 | 1.64 | 1.91
GUACUUCAAACCAUCGGUCUG [Fam1A.1 aminoacylation ribozyme variant] | 2.13 | 1.22 | 1.13 | 1.18 | 0.918 | 1.31
GUAUUUCAAACAAUCGGUCUG [Fam1A.1 aminoacylation ribozyme variant] | 2.64 | 1.1 | 1.09 | 1.04 | 1.02 | 2.34
GUCACCCUGGUCAUCGAGUGA [Fam2.1 aminoacylation ribozyme variant] | 45.7 | 5.2 | 7.39 | 5.25 | 7.9 | 10.6
GUCCUUCAAACAAUCGGUCUG [Fam1A.1 aminoacylation ribozyme variant] | 11.9 | 1.31 | 1.35 | 1.52 | 1.49 | 11
GUUACACUGGUCAUCGAGUGA [Fam2.1 aminoacylation ribozyme variant] | 28.9 | 4.91 | 6.79 | 4.18 | 6.76 | 8.81
GUUACCCCGGUCAUCGAGUGA [Fam2.1 aminoacylation ribozyme variant] | 45.8 | 3.82 | 6.95 | 3.38 | 7.66 | 8.27
GUUACCCUAGUCAUCGAGUGA [Fam2.1 aminoacylation ribozyme variant] | 28.1 | 3.81 | 6.66 | 3.33 | 6.93 | 7.77
GUUACCCUCGUCAUCGAGUGA [Fam2.1 aminoacylation ribozyme variant] | 11 | 2.45 | 4.14 | 2.31 | 3.7 | 4.33
GUUACCCUGGGCAUCGAGUGA [Fam2.1 aminoacylation ribozyme variant] | 68.6 | 4.53 | 8.99 | 4.16 | 8.7 | 10.1
GUUACCCUGGUCAUCGAGCGA [Fam2.1 aminoacylation ribozyme variant] | 5.54 | 2.84 | 4.51 | 3.46 | 4.14 | 4.27
GUUACCCUGGUCAUCGAGUGG [Fam2.1 aminoacylation ribozyme variant] | 402 | 15 | 57.2 | 17.4 | 58.4 | 50
GUUACCCUGGUCAUCUAGUGA [Fam2.1 aminoacylation ribozyme variant] | 78.6 | 5.9 | 12 | 6.05 | 11.7 | 13.4
GUUACCCUGGUCAUUGAGUGA [Fam2.1 aminoacylation ribozyme variant] | 71.3 | 4.72 | 10.2 | 5.29 | 11 | 13
GUUAGCCUGGUCAUCGAGUGA [Fam2.1 aminoacylation ribozyme variant] | 51.9 | 5.11 | 6.67 | 5.04 | 7.66 | 8.56
GUUCACCCAGGUCAUCGGGUG [Fam2.2 aminoacylation ribozyme variant] | 29.1 | 3.12 | 3.77 | 3.64 | 5.02 | 3.77
GUUCACCUAGCUCAUCGGGUG [Fam2.2 aminoacylation ribozyme variant] | 1.08 | 1.55 | 1.64 | 1.91 | 2.06 | 2.86
GUUCACCUAGGCCAUCGGGUG [Fam2.2 aminoacylation ribozyme variant] | 25.4 | 3.17 | 3.77 | 3.86 | 3.61 | 3.64
GUUCACCUAGGUCAUCGGAUG [Fam2.2 aminoacylation ribozyme variant] | 0.879 | 0.815 | 0.701 | 0.979 | 0.728 | 0.5
GUUCACCUAGGUCAUCGGGUA [Fam2.2 aminoacylation ribozyme variant] | 381 | 24.6 | 50.6 | 22.6 | 68.3 | 33.1
GUUCACCUAGGUCAUUGGGUG [Fam2.2 aminoacylation ribozyme variant] | 8.92 | 2.6 | 2.21 | 2.27 | 2.83 | 3.8
GUUCACCUAGGUCCUCGGGUG [Fam2.2 aminoacylation ribozyme variant] | 25.5 | 3.49 | 4.16 | 4.16 | 4.67 | 5.27
GUUCAUCUAGGUCAUCGGGUG [Fam2.2 aminoacylation ribozyme variant] | 35.3 | 4.19 | 5.79 | 3.72 | 7.61 | 7.23
GUUUCCCUGGUCAUCGAGUGA [Fam2.1 aminoacylation ribozyme variant] | 48.7 | 6.97 | 14.6 | 7.85 | 14.8 | 16.2

Sequence | self-aminoacylation (biotinyl-Phe-oxazolone) | self-aminoacylation (biotinyl-Ile-oxazolone) | self-aminoacylation (biotinyl-Met-oxazolone) | self-aminoacylation (biotinyl-Val-oxazolone) | self-aminoacylation (biotinyl-Leu-oxazolone) | self-aminoacylation (biotinyl-Trp-oxazolone)
UAGCUUGCUAAUAGUCGCAAG [Fam3.1 aminoacylation ribozyme variant] | 3.65 | 2.34 | 1.88 | 2.22 | 1.8 | 1.84
UAGGUUGCUAAUAGUCGCAAG [Fam3.1 aminoacylation ribozyme variant] | 1.91 | 1.4 | 1.2 | 1.2 | 1.15 | 2.01
UAGUAUGCUAAUAGUCGCAAG [Fam3.1 aminoacylation ribozyme variant] | 2 | 1.62 | 1.28 | 1.13 | 1.57 | 1.68
UAGUUUGCUAAAAGUCGCAAG [Fam3.1 aminoacylation ribozyme variant] | 3.92 | 1.53 | 1.93 | 1.6 | 1.57 | 3.43
UAGUUUGCUAAUAGUCGCUAG [Fam3.1 aminoacylation ribozyme variant] | 1.68 | 1.18 | 1.01 | 1.13 | 1.13 | 1.08
UAGUUUGCUGAUAGUCGCAAG [Fam3.1 aminoacylation ribozyme variant] | 2.35 | 1.61 | 0.993 | 1.47 | 1.08 | 1.61
UAGUUUGGUAAUAGUCGCAAG [Fam3.1 aminoacylation ribozyme variant] | 2.29 | 1.73 | 1.74 | 1.57 | 1.81 | 1.96
UAGUUUUCUAAUAGUCGCAAG [Fam3.1 aminoacylation ribozyme variant] | 1.6 | 1.52 | 1.25 | 1.23 | 1.3 | 1.59
UCACACUUCAAGCAACCGGUC [Fam1B.1 aminoacylation ribozyme variant] | 1.26 | 0.984 | 0.801 | 1.05 | 0.739 | 0.796
UCACACUUCAAGCAAGCGGUC [Fam1B.1 aminoacylation ribozyme variant] | 0.807 | 0.965 | 1.02 | 1.06 | 0.991 | 0.746
UCACACUUCAAGCAAUCAGUC [Fam1B.1 aminoacylation ribozyme variant] | 17.9 | 0.777 | 0.645 | 0.932 | 0.817 | 5.72
UCACACUUCAAGCCAUCGGUC [Fam1B.1 aminoacylation ribozyme variant] | 0.948 | 1.01 | 1.08 | 1.24 | 1.1 | 0.854
UCACACUUCAUGCAAUCGGUC [Fam1B.1 aminoacylation ribozyme variant] | 0.632 | 0.85 | 0.793 | 0.887 | 0.736 | 0.656
UCACACUUCGAGCAAUCGGUC [Fam1B.1 aminoacylation ribozyme variant] | 1.23 | 0.91 | 0.953 | 1.05 | 0.931 | 1.12
UGUCACCUAGGUCAUCGGGUG [Fam2.2 aminoacylation ribozyme variant] | 23.9 | 3.84 | 4.27 | 3.6 | 3.64 | 5.31
UUACAUCAAACAAUCGGUCUG [Fam1A.1 aminoacylation ribozyme variant] | 3.42 | 1.12 | 1.19 | 1.17 | 1.17 | 2.51
UUACCUCAAACAAUCGGUCUG [Fam1A.1 aminoacylation ribozyme variant] | 3.03 | 0.975 | 0.97 | 1.01 | 0.861 | 2.66
UUACUACAAACAAUCGGUCUG [Fam1A.1 aminoacylation ribozyme variant] | 1.62 | 1.04 | 0.904 | 0.833 | 0.856 | 1.31
UUACUUCAAACAACCGGUCUG [Fam1A.1 aminoacylation ribozyme variant] | 1.38 | 1.36 | 1.03 | 1.15 | 1.22 | 1.51
UUACUUCAAACAAUCGCUCUG [Fam1A.1 aminoacylation ribozyme variant] | 2.29 | 1.21 | 1.07 | 1.12 | 1.16 | 1.51
UUACUUCAAACAAUCGGACUG [Fam1A.1 aminoacylation ribozyme variant] | 7.94 | 1.08 | 1.26 | 0.854 | 0.969 | 4.92
UUACUUCAAACAAUCGGUAUG [Fam1A.1 aminoacylation ribozyme variant] | 12.4 | 1.16 | 1.02 | 1.02 | 1.3 | 7.05
UUACUUCUAACAAUCGGUCUG [Fam1A.1 aminoacylation ribozyme variant] | 0.907 | 1.08 | 1.09 | 1.08 | 1.11 | 0.836
UUUACCCGGGUCAUCGAGUGA [Fam2.1 aminoacylation ribozyme variant] | 43.1 | 3.4 | 7.15 | 4.02 | 7.17 | 9.17
UUUACCCUAGUCAUCGAGUGA [Fam2.1 aminoacylation ribozyme variant] | 17.3 | 2.79 | 5.76 | 3.09 | 5.04 | 7.33

Reference: the supplement of paper PMC9233669
